For this assay, the system named is femoral fractures of ‘2-mo’ mice. As to the kind of experiment: Hydrogels containing recombinant Csf1 applied to femoral fractures of young mice (μCT and flow cytometry). Format: in vivo, mouse. The note with it: 5 μg recombinant Csf1 in hydrogel, versus PBS. The source says:
We also tested whether these increases in Csf1 affected bone maintenance and regeneration. […] Unexpectedly, however, femora harvested from transgenic mice at post-fracture day-21 had decreased mechanical strength compared to wild-type controls despite having increased BMD and similar callus volume (FIG. 3p-q & FIG. 11g). […] In total, SSC lineage derived Csf1 might drive increased bone resorption by stimulating higher osteoclast activity, and this activity needs to be maintained and finely balanced for proper bone health.
Bi-cortical femoral fracture: Animals were anaesthetized using aerosolized isoflurane and analgesia was administered before incision. The femur was exposed following muscle distraction and lateral dislocation of the patella. […]
Micro-computed tomography: Femora were harvested and cleaned of soft tissue. […] Reconstructed samples were analyzed using CT Analyser and CTvox software (Bruker). Trabecular bone parameters of uninjured femur bones were assessed by analyzing a region of 200 sections which was defined 50 sections distal of the end of the growth plate. Fracture calluses were analyzed by selecting 150 sections in both directions of the fracture gap yielding a total area of 300 sections. […]
Background: In flow cytometry, cells or beads pass a laser one at a time.

The record followed here is patent publication US20240181135A1, “BIOCHEMICAL ACTIVATION OF DYSFUNCTIONAL SKELETAL STEM CELLS FOR SKELETAL REGENERATION” (The Board of Trustees of the Leland Stanford Junior …, priority 2021, published 2024).

B1: recombinant Csf1: recombinant Csf1 (5 μg) in hydrogel with defined release kinetics, applied to fractures (protein, UniProt P07141 33-552, looked up)
Macrophage colony-stimulating …: KEVSEHCSHMIGNGHLKVLQQLIDSQMETSCQIAFEFVDQEQLDDPVCYLKKAFFLVQDIIDETMRFKDNTPNANATERLQELSNNLNSCFTKDYEEQNKACVRTFHETPLQLLEKIKNFFNETKNLLEKDWNIFTKNCNNSFAKCSSRDVVTKPDCNCLYPKATPSSDPASASPHQPPAPSMAPLAGLAWDDSQRTEGSSLLPSELPLRIEDPGSAKQRPPRSTCQTLESTEQPNHGDRLTEDSQPHPSAGGPVPGVEDILESSLGTNWVLEEASGEASEGFLTQEAKFSPSTPVGGSIQAETDRPRALSASPFPKSTEDQKPVDITDRPLTEVNPMRPIGQTQNNTPEKTDGTSTLREDHQEPGSPHIATPNPQRVSNSATPVAQLLLPKSHSWGIVLPLGELEGKRSTRDRRSPAELEGGSASEGAARPVARFNSIPLTDTGHVEQHEGSSDPQIPESVFHLLVPGIILVLLTVGGLLFYKWKWRSHRDPQTLDSSVGRPEDSSLTQDEDRQVELPV
modifications: in hydrogel
notes: recombinant Csf1 (5 μg) in hydrogel with defined release kinetics, applied to fractures
Regarding B1, the “Fracture healing (μCT of day-10 calluses)” value is listed as “impaired healing” and the “SSC frequency at day-10 (flow cytometry)” value is “without alteration of SSC frequency”.
